The labels stand for the following.
B1: 10E8.B6 mouse/human chimeric IgG4 (S228P) kappa (antibody, V domains shown)
VH: EVQLQQSGPELMKPGDSVKMSCKASGYTFTDYYMDWVKQSHGKSLEWIGYIYPNIDFTTYNQKFKGKATLTVDKSSNTAYMELHSLTSEDSAVYYCTRRDLPLHGSAYYFDYWGQGTTLTVSS
VL: DIVMSQSPSSLAVSAGEKVTMSCKSSQSLLNSRTRKNYLAWYQQKPGQSPKLLIYWASTRESGVPDRFTGSGSGTDFTLTISSVQAEDLAVYYCKQSYDLFTFGSGTKLEIKR
B2: 13E11.A4 mouse/human chimeric IgG4 (S228P) kappa (antibody)
heavy: not shown
light: DIVMTQSHKFMSTSVGDNVSITCKASQYVSNTVAWYQQKPGQSPKLLIYSASYRNTGVPDRFTGSGSGTNFTFTISNMQAEDLAFYYCQQHYTSPLTFGAGTKLELKRTVAAPSVFIFPPSDEQLKSGTASVVCLLNNFYPREAKVQWKVDNALQSGNSQESVTEQDSKDSTYSLSSTLTLSKADYEKHKVYACEVTHQGLSSPVTKSFNRGEC
B3: 14F8.H6 mouse/human chimeric IgG4 (S228P) kappa (antibody, V domains shown)
VH: EVHLVESGGALVKPGGSLKLSCTASGFTFSNSVMSWIRQTPEKRLEWVATIGSGGTYIYYPDSVKGRFTISRDNSKNTLFLQMTSLRSEDTALYYCARHIYGYDVVDYWGQGTTLTVST
VL: DIVMTQSHRFMSTSVGDRVSITCKASHDVSNVVAWYQQKPGQSPELLIYSASYRYTGVPARFTGSGSGTDFTFTISSVQAEDLAVYFCQQHFTTPLTFGAGTSLEVRR
B4: 1H7.C7 mouse/human chimeric IgG4 (S228P) kappa (antibody, V domains shown)
VH: EVQLVESGGGLVMPGGSRRLSCAASGFTFSDSGMYWVRQAPEKGLEWIAYISSGSDTLYYAATVKGRFTISRDNAKNTLFLQMTSLRSEDTAIYYCAKRNFYGYDVMDYWGQGTSVTVSS
VL: DIVMTQSHKFMSTSVGDRVSITCKASQDVSNVVAWYQQKPGQSPKLLIYSASYRYTGVPDRFAGSGSGTDFTFTISSVQAEDLAVYYCQQHYSTPWTFGGGTKLEIKR
B5: 9A10.C4 mouse/human chimeric IgG4 (S228P) kappa (antibody, V domains shown)
VH: EVQLVESGGALVQPGGSLKLSCVASGFSFSNCVMSWVRQSPEKRLEWVATIGSDGSYSYYQDNVKGRFTVSRDNAKNTLYLQMSSLGSEDTALYYCGRHIYGYDVVDYWGQGTSLTVSS
VL: B4 VL with S20T, Y36F, Y55F, T56G, A63T, S93D, W96L, G100T, K103T, I106L
B6: 5D2.C8 mouse/human chimeric IgG4 (S228P) kappa (antibody, V domains shown)
VH: EVKLVESGGGLVKPGGSLKLSCAVSGFTFSNSAMSWVRQTPAKRLEWVAYISISGDNTYYPDSVKGRFTISRDNAKNTLYLQMSSLRSEDTAMYYCARRGYDYDGFTHWGQGTLVTVSA
VL: DILLTQSPAILSVSPGERVSFSCRASQNIGTSIHWYQQRTNGSPRLLIKYASQSISGIPSRFSGSGSGTDFTLSINSVESEDIADYYCQQSYSWPLTFGTGTQLELKR
B7: 1C6.D6 mouse/human chimeric IgG4 (S228P) kappa (antibody, V domains shown)
VH: QVQLQQPGAEMVRPGTSVKLSCKASGYTFTSYWMHWVKQRPGQGLEWIGKIDPSHNKTHYIQKFEDKATLTVDKSSSTAYMHLNSLTSEDSAVYYCVTWDGDFLYWGQGTLVTVSA
VL: NIVLTQSPASLTVSLGQRATISCRASESVDSYGNSFMHWYQQKPGQPPKLLIYITSNLQSGVPARFSGGGSRTDFTLTIDPVEADDAATYYCQQNNEDPWTFGGGTKLEIKR
notes: also called 1C6.D6b
B8: h14D12.D humanized IgG4 (S228P) kappa (antibody)
heavy: not shown
light: DVQMTQSPSSLSASVGDRVTITCRASQSVDYDGDSYMNWYQQKPGKAPKLLIYAASNLESGVPSRFSGSGSGTDFTLTISSLQPEDFATYYCQQSNEDPRTFGGGTKLEIKRTVAAPSVFIFPPSDEQLKSGTASVVCLLNNFYPREAKVQWKVDNALQSGNSQESVTEQDSKDSTYSLSSTLTLSKADYEKHKVYACEVTHQGLSSPVTKSFNRGEC
B9: h14D12.G humanized IgG4 (S228P) kappa (antibody)
heavy: not shown
light: B8 light with V2I
B10: h14D12.E humanized IgG4 (S228P) kappa (antibody, V domains shown)
VH: QIQLVQSGSELKKPGASVKVSCKASGYTFTNYGMNWVRQAPGQGLEWMGLINTYTGEPTYADGFTGRFVFSLDTSVSTAYLQISSLKAEDTAVYYCARERIYGYLHYFDYWGQGTTVTVSS
VL: DVQMTQSPSSLSASVGDRVTITCRASQSVDYDGDSYMNWYQQKPGKAPKLLIYAASNLESGVPSRFSGSGSGTDFTLTISSLQPEDFATYYCQQSNEDPRTFGGGTKLEIKR
B11: h16E10.D humanized IgG4 (S228P) kappa (antibody)
heavy: not shown
light: DIVLTQSPLSLPVTPGEPASISCRSSQSLLNSGNQENYLAWYLQKPGQSPQLLIYGASTRESGVPDRFSGSGSGTDFTLKISRVEAEDVGVYYCQNDHSYPLTFGGGTKLEIKRTVAAPSVFIFPPSDEQLKSGTASVVCLLNNFYPREAKVQWKVDNALQSGNSQESVTEQDSKDSTYSLSSTLTLSKADYEKHKVYACEVTHQGLSSPVTKSFNRGEC
B12: h16E10.F humanized IgG4 (S228P) kappa (antibody)
heavy: not shown
light: B11 light with L4M
B13: h16E10.E humanized IgG4 (S228P) kappa (antibody)
heavy: not shown
light: B11 light
B14: h16E10.G humanized IgG4 (S228P) kappa (antibody)
heavy: not shown
light: B11 light with L4M
B15: h16E10.C humanized IgG4 (S228P) kappa (antibody, V domains shown)
VH: QVQLVQSGAEVKKPGASVKVSCKASGYTFTNYWLGWVRQAPGQGLEWMGDIYPGGGYTNYNEKFQGRVTMTADTSTSTAYMELSSLRSEDTAVYYCAKFYYYGSSYYFDSWGQGTTVTVSS
VL: DIVMTQSPDSLAVSLGERATINCKSSQSLLNSGNQENYLAWYQQKPGQPPKLLIYGASTRESGVPDRFSGSGSGTDFTLTISSLQAEDVAVYYCQNDHSYPLTFGGGTKLEIKR
B16: h14D12.B humanized IgG4 (S228P) kappa (antibody, V domains shown)
VH: QIQLVQSGAEVKKPGASVKVSCKASGYTFTNYGMNWVRQAPGQGLEWMGLINTYTGEPTYADKFQGRVTMTLDTSTSTAYMELSSLRSEDTAVYYCARERIYGYLHYFDYWGQGTTVTVSS
VL: DVVMTQSPDSLAVSLGERATINCKASQSVDYDGDSYMNWYQQKPGQPPKLLIYAASNLESGVPDRFSGSGSGTDFTLTISSLQAEDVAVYYCQQSNEDPRTFGGGTKLEIKR
B17: h14D12.F humanized IgG4 (S228P) kappa (antibody, V domains shown)
VH: B16 VH
VL: B10 VL
B18: h14D12.H humanized IgG4 (S228P) kappa (antibody, V domains shown)
VH: B16 VH with M70F, T76A, Y95F
VL: B10 VL with V2I
B19: h14D12.C humanized IgG4 (S228P) kappa (antibody, V domains shown)
VH: B16 VH with M70F, T76A, Y95F
VL: B16 VL with L58R

Changes are numbered by the printed parent chain. Numbers in names are those of the source.

Data on 19 molecules can be found in US20230348603A1 (VERSEAU THERAPEUTICS, published 2023).

For one assay, the target named is T1, Human VSIG4-L-Fc (human).
T1 construct: also called hVSIG4-L-Fc; hVSIG4-L
In words: BLI cross-blocking on hVSIG4-L-Fc, competitor 14C05 first.
Regarding B1, the “binding signal (nm shift)” value was found to be 0.11 nm.

For the molecule B2, the “binding signal (nm shift)” value came to 0.24 nm.

As for B3, the “binding signal (nm shift)” value turned out to be 0.15 nm.

For B4, the “binding signal (nm shift)” value was 0.13 nm.

Consider B5, for which the “binding signal (nm shift)” value worked out at 0.14 nm.

As to B6, the “binding signal (nm shift)” value was 0.12 nm.

Consider B7, for which the “binding signal (nm shift)” value came to 0.59 nm.

Another assay has as its target T1, Human VSIG4-L-Fc. As to the kind of experiment: BLI cross-blocking on hVSIG4-L-Fc, competitor 12A12 first.
For the molecule B1, the “binding signal (nm shift)” value worked out at 0.06 nm.

Take B2: the “binding signal (nm shift)” value amounted to 0.07 nm.

B3: the “binding signal (nm shift)” value came to 0.1 nm.

On to B4, for which the “binding signal (nm shift)” value came out at 0.08 nm.

B5: the “binding signal (nm shift)” value was 0.1 nm.

With B6, the “binding signal (nm shift)” value worked out at 0.07 nm.

With B7, the “binding signal (nm shift)” value worked out at 0.08 nm.

In a further assay the target is T2, Human VSIG4-L-His (human, UniProt Q9Y279 20-283).
T2 construct: long isoform ECD with His tag; also called hVSIG4-L
T2 sequence: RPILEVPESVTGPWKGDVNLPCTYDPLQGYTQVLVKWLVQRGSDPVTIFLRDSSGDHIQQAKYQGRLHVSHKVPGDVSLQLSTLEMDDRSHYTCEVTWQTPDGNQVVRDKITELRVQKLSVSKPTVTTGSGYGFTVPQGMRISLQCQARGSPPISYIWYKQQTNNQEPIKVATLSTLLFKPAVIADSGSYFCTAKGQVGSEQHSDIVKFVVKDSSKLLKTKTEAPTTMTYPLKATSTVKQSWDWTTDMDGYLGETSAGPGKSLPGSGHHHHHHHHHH
As to the kind of experiment: BLI, IgG on AHC sensor, antigen 100 nM.
As for B8, the “KD relative to parental chimera” value was 1 fold.

On to B9, for which the “KD relative to parental chimera” value worked out at 1 fold.

As for B10, the “KD relative to parental chimera” value stood at 0.9 fold.

With B11, the “KD relative to parental chimera” value came to 0.6 fold.

As to B12, the “KD relative to parental chimera” value was 0.7 fold.

Turning to B13, the “KD relative to parental chimera” value was determined as 0.8 fold.

As for B14, the “KD relative to parental chimera” value was 0.9 fold.

Take B15: the “KD relative to parental chimera” value came to 1.7 fold.

Regarding B16, the “KD relative to parental chimera” value is 1 fold.

As to B17, the “KD relative to parental chimera” value was 0.8 fold.

As to B18, the “KD relative to parental chimera” value was 1.1 fold.

Take B19: the “KD relative to parental chimera” value was 1.4 fold.

The target in a further assay is T3, Cynomolgus Monkey VSIG4-L-His (cynomolgus monkey).
T3 construct: ECD with His tag; also called cyVSIG4-L; cyno VSIG4-L-His
T3 chain: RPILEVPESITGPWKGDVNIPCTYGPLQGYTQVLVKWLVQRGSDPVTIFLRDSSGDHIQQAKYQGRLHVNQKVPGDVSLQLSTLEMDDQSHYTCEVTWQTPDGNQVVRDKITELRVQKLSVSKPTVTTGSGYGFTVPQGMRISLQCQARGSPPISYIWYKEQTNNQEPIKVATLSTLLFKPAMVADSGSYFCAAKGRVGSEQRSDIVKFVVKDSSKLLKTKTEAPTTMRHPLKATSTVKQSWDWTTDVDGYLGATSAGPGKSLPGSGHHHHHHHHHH
As to the kind of experiment: BLI, IgG on AHC sensor, antigen 100 nM. (In general: Biolayer interferometry detects binding as a change in optical thickness at a sensor tip.)
Take B8: the “KD relative to parental chimera” value was found to be 1 fold.

In the case of B9, the “KD relative to parental chimera” value stood at 1.1 fold.

Turning to B10, the “KD relative to parental chimera” value is 0.9 fold.

On to B11, for which the “KD relative to parental chimera” value was 1.1 fold.

As to B12, the “KD relative to parental chimera” value is 1 fold.

Take B13: the “KD relative to parental chimera” value worked out at 1.3 fold.

In the case of B14, the “KD relative to parental chimera” value worked out at 0.4 fold.

In the case of B15, the “KD relative to parental chimera” value was 1.1 fold.

On to B16, for which the “KD relative to parental chimera” value is 1.3 fold.

Take B17: the “KD relative to parental chimera” value was determined as 1 fold.

As for B18, the “KD relative to parental chimera” value worked out at 1.2 fold.

Take B19: the “KD relative to parental chimera” value came out at 1.5 fold.
